Results on two substances are retold here after patent US20060251734A1.

In data set [1] the test system is T1, mutated cdc2 peptide with Phe-15 substituted for Tyr-15 (IEKIGEGTFGVVYK).
T1 sequence: IEKIGEGTFGVVYK

Data set [2] addresses cdc2 peptide (amino acids 7 to 20; …). Description: cell-based or functional assay.

As for p56/p53^lyn tyrosine kinase, the “phosphorylation of the mutated cdc2 peptide (Tyr-15 to Phe-15) by anti-Lyn immune complexes” value in data set [1] is reported as “there was little phosphorylation of the mutated cdc2 peptide with anti-Lyn complexes from control or MMC-treated cells”.

With “p56/p53^lyn tyrosine kinase (from UniProt P07948 2-512) (enzyme)”, in data set [2], the phosphorylation of the cdc2 peptide by anti-Lyn immune complexes from MMC-treated cells against control cells was 2 fold.
